The values that follow are results of earlier work, collected in paper PMC5807066.

Data set [1] concerns the target MBP (unfolded) (Escherichia coli) [MBP: P0AEX9].
In data set [2] the target is SecA (Escherichia coli) (UniProt P10408).
For data set [3] the target is unchanged. The source holds these as a separate data set.
The target is the same in data set [4]. The source holds these as a separate data set.
Data set [5] concerns the target SecA:SecYEG complex (Escherichia coli) (UniProt C4ZRJ3).

Several values for one entry are separate records, joined by “and”; a condition that tells them apart may be missing. Equal entries are not always repeated. Where two headings read alike, the source gives them in different places.

Sequence of SecA (P10408 whole entry): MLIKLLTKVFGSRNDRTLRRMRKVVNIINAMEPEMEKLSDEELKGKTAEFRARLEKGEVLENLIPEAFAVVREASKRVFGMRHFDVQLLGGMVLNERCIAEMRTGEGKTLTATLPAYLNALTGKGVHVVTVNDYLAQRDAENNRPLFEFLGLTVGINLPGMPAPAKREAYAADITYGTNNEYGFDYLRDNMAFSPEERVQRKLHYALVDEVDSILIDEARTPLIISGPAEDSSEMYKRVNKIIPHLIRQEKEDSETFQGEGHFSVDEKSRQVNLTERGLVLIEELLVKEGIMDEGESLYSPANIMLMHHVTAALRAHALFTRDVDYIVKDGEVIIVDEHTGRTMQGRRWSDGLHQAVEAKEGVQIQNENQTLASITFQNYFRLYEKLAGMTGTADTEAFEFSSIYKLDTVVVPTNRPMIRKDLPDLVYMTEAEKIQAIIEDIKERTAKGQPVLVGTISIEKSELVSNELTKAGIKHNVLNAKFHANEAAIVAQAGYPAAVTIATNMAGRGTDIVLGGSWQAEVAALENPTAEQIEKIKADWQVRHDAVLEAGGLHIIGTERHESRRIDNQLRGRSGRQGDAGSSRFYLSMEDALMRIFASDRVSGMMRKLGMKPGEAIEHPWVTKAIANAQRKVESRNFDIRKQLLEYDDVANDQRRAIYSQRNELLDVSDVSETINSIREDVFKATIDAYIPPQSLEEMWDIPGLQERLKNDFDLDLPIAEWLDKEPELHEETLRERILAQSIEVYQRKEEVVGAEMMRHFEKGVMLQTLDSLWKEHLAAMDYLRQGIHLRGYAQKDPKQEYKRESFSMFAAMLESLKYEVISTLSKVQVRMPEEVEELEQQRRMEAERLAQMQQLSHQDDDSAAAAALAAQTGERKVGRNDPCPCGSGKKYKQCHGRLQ

What is called Kd is the equilibrium constant for the complex coming apart. Take SecB (from UniProt P0AG86): the equilibrium dissociation constant (Kd) in data set [1] is 0.03 µM; in data set [2], 2 µM; in data set [3], 4 µM.
On to SecA (from UniProt P10408), for which the Kd in data set [4] was 0.1 µM and 1 µM.
With PhoA precursor (from UniProt P00634), in data set [5], the Kd was 0.23 µM.
